Experimental findings from the supplement of paper PMC12764529 are described below.

Series [1] is described as follows: folding stability dG unfold (combined trypsin and chymotrypsin); higher = more stable. In short, it runs like this:
(§1)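 Bayesian fitting of sequencing counts gave K50 for each design. Unfolding free energy followed by setting this against a sequence-predicted unfolded-state K50 and a shared folded-state K50, either per protease or with trypsin and chymotrypsin combined. The designs, under 80 residues and lacking cysteine, were digested in a PA-tagged cDNA display format at 11 threefold-diluted protease concentrations and without protease, and only those with AlphaFold2 dimer inter-PAE above 15 were kept.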

Series [2] is described as follows: folding stability dG unfold from trypsin proteolysis; higher = more stable. In short, it runs like this: as §1
The nature of series [3]: folding stability dG unfold from chymotrypsin proteolysis; higher = more stable. In outline: as §1

± gives the half width of the 95% confidence interval.

As to “SAGGGMLLTTTQTITLPNGTLLTVTSTFTLTPPAVPVPVVELDESSIAEYDPATGILTDPSVPTPIPVPSAG [r5_807_JUSTAS]”, the “folding stability dG unfold” value in series [1] was found to be 0.766 ± 0.1 kcal/mol; in series [2] it was 0.733 ± 0.066 kcal/mol; in series [3], 0.596 ± 0.11 kcal/mol.

As to “SAGGGMNISVDPNQSVTIPVTRIENGVPVETTVTISLPAGSTISPEGDNIIINYPHTGQTITLPTTLISAGG [r13_275_JUSTAS]”, the results for the “folding stability dG unfold” value in series [1], in series [2] and in series [3] were 0.862 ± 0.041 kcal/mol, 1.36 ± 0.043 kcal/mol and -0.174 ± 0.1 kcal/mol, respectively.

Consider “SAGGGMSTLVRLPPGGVEEREVPPGTEADLNAEFSPESKLVVRTFDPATGRWTETVYEPGGVPTVLSSSAGG [r13_74_JUSTAS]”, for which the “folding stability dG unfold” value in series [1] came out at 3.41 ± 0.32 kcal/mol; in series [2], 2.91 ± 0.082 kcal/mol; in series [3], 3.65 ± 0.21 kcal/mol.

Regarding “SAGGGMVITTPQTTSTTFSPPTAPAVPAPFTQSSSFTIGNTKVTVTTTQAAGSGTTTVTLTTILPPLASAGG [r13_998_JUSTAS]”, the “folding stability dG unfold” value was 1.12 ± 0.065 kcal/mol in series [1], 1 ± 0.034 kcal/mol in series [2] and 1.18 ± 0.089 kcal/mol in series [3].

With “SAGGGNIRPVRIERLPDGSLLIVLVADSPDDAFSDESTLDALPGEEELLEARYDPSTGRVLLVRRFRPSAGG [r13_413_TrMRF]”, the figures for the “folding stability dG unfold” value in series [1], in series [2] and in series [3] were 1.55 ± 0.071 kcal/mol, 1.33 ± 0.055 kcal/mol and 1.71 ± 0.064 kcal/mol, respectively.

For “SAGGGNKVLLVVEAESPEVLEEKIREAEEAFGFTVTPLRREPLPDDRYRLVLEIDAPPEVVEFFKKESAGGS [r8_357_TrMRF]”, the “folding stability dG unfold” value was 1.3 ± 0.045 kcal/mol in series [1], 1.15 ± 0.032 kcal/mol in series [2] and 1.35 ± 0.092 kcal/mol in series [3].

As for “SAGGGPLKPILLKVTAKVEKNGKLLEVEAEIAVPLPNKPITLEEIRKILEEALPPDVKIVSLELDPESAGGS [r16_407_TrMRF]”, the “folding stability dG unfold” value in series [1] came out at 2.67 ± 0.21 kcal/mol; in series [2], 2.99 ± 0.2 kcal/mol; in series [3], 2.6 ± 0.075 kcal/mol.

As for “SAGGGPPPVEVTTSTDPSTGKVTTTVTAGPAGTRFTSSSPNGSSTTTTTVTYVGDTWEVSTSSTSSSSAGGS [r16_631_JUSTAS]”, the “folding stability dG unfold” value in series [1] turned out to be 1.31 ± 0.1 kcal/mol; in series [2] it was 1.21 ± 0.061 kcal/mol; in series [3], 1.37 ± 0.11 kcal/mol.

For the sequence “SAGGGPVTEETYTIKRPDGTELVVTRYYFPGTGETVVRIYPPSTKTPLSTVPLSEASPELLAEIARRSAGGS [r8_32_JUSTAS]”, the “folding stability dG unfold” value in series [1] worked out at 1.79 ± 0.03 kcal/mol; in series [2], 1.2 ± 0.027 kcal/mol; in series [3], 2.108 ± 0.013 kcal/mol.

In the case of “SAGGGPVTVTVTFKPPSTGLTSTVTLPFPNVSSYEEAKERAEELAKEAGGPIETITFTDPATGKAHPLSAGG [r13_771_JUSTAS]”, the “folding stability dG unfold” value in series [1] is 0.646 ± 0.23 kcal/mol; in series [2] it was 0.449 ± 0.068 kcal/mol; in series [3] it was 0.213 ± 0.27 kcal/mol.

For “SAGGGPVVLTDPVKTEKSPDGTTYTLTREVFYDPSRGEPLKVRFTLTKVTNYPDGVKTETLEEKEVALSAGG [r13_596_JUSTAS]”, the “folding stability dG unfold” value in series [1] was determined as 1.09 ± 0.16 kcal/mol; in series [2] it was 0.816 ± 0.081 kcal/mol; in series [3], 1.33 ± 0.19 kcal/mol.

As to “SAGGGQTIEIKFPVPNENYRVYLMVYDPDKPISVEPQRFDPPDGEVTDKIKLPPDVKIGFMAFPPEDMSAGG [r13_977_TrROS]”, the “folding stability dG unfold” value was 0.823 ± 0.048 kcal/mol in series [1], 0.631 ± 0.033 kcal/mol in series [2] and 0.966 ± 0.13 kcal/mol in series [3].

With “SAGGGRARLIELKEARFNPETGVLELTALVEFPEIGTLVVFRIRVPLEGEPRIEIEVEVYPIKPGEASAGGS [r16_207_TrMRF]”, the “folding stability dG unfold” value is 4 ± 0.091 kcal/mol in series [1], 3.17 ± 0.07 kcal/mol in series [2] and 4.31 ± 0.056 kcal/mol in series [3].

As for “SAGGGRVAVLKVEVRNPETGETTEVELVLPLPPEMTPEEAEEAAREAARTLAESTGVEVEIKSVELLSAGGS [r8_312_TrMRF]”, the “folding stability dG unfold” value in series [1] amounted to 3.46 ± 0.053 kcal/mol; in series [2], 3.77 ± 0.068 kcal/mol; in series [3], 3.278 ± 0.031 kcal/mol.

“SAGGGSFINISKKEIAEAISKLIGKDYPLEDVKVSVTTLPENKTIINVEIKLPNTTETLYIPILFDVSAGGS [r16_42_TrMRF]”: the “folding stability dG unfold” value in series [1] was 1.91 ± 0.068 kcal/mol; in series [2], 2.09 ± 0.094 kcal/mol; in series [3] it was 1.7 ± 0.018 kcal/mol.

Consider “SAGGGSLSDIATVDTSSYTDPNNPASVTVTNVTIPDGSTVTVTYNPTTGTVTVTTATDGTTTTTTIPSSAGG [r13_960_JUSTAS]”, for which the figures for the “folding stability dG unfold” value in series [1], in series [2] and in series [3] were 1.42 ± 0.15 kcal/mol, 1.89 ± 0.19 kcal/mol and 0.917 ± 0.056 kcal/mol, respectively.

As for “SAGGGSMEEARRLIEEIAEEVKAKGVKVKVRITFGPDPKVLSIEIFSPDEPIVDNGGPGLVTLTFDIPSAGG [r13_693_JUSTAS]”, the “folding stability dG unfold” value in series [1] was found to be 2.55 ± 0.063 kcal/mol; in series [2], 2.07 ± 0.057 kcal/mol; in series [3], 2.778 ± 0.023 kcal/mol.

For the sequence “SAGGGSMPASITTEVTETTTPDATVTKSTVYYPDTGKWLEETTTTGPTTTITTTKFPDGSTTVTTAASAGGS [r16_657_JUSTAS]”, the “folding stability dG unfold” value in series [1] is -0.175 ± 0.11 kcal/mol; in series [2] it was 0.275 ± 0.052 kcal/mol; in series [3], -1.18 ± 0.28 kcal/mol.

Regarding “SAGGGSMSESLSLVEEEIKVGETVVKVKRLIYPVSGTALVEITKPGGGPIGVFNTTISPSTGGVELLSAGGS [r16_798_JUSTAS]”, the “folding stability dG unfold” value in series [1] is < -1 kcal/mol; in series [2], -1.04 ± 0.17 kcal/mol; in series [3] it was -1.38 ± 0.57 kcal/mol.

In the case of “SAGGGSSSTTTSTTTTTSTSIEPLPGDREVVVTTTTTTTTTTTTTTPPDGSSTSTTTTTTTTTTTVTLASAG [r5_428_JUSTAS]”, the “folding stability dG unfold” value in series [1] came out at 1.93 ± 0.13 kcal/mol; in series [2], 2.57 ± 0.23 kcal/mol; in series [3], 1.45 ± 0.082 kcal/mol.

As to “SAGGGSTVTTFDPSTGKTTVSIGTDPATGERTVTIVLKNGTPVTVPGPFPSVEEAEAAAAAAAAAAASAGGS [r16_319_JUSTAS]”, the results for the “folding stability dG unfold” value in series [1], in series [2] and in series [3] were 0.818 ± 0.097 kcal/mol, 0.762 ± 0.043 kcal/mol and 0.824 ± 0.041 kcal/mol, respectively.

As to “SAGGGSVTVSLEGNTTYVRISREDGPERTYTFPQPNGEPLTFTEAPGRPGLITITRPATGEPVVLALSAGGS [r16_198_JUSTAS]”, the “folding stability dG unfold” value in series [1] came to 0.219 ± 0.18 kcal/mol; in series [2], 0.281 ± 0.18 kcal/mol; in series [3], 0.0166 ± 0.31 kcal/mol.

As for “SAGGGTFYLVVKVEKVAPNPETGELVEERLELVIPGKAPNAVSEEDLKAFVDALLPLGYKVEVELREGSAGG [r13_926_TrMRF]”, the entries for the “folding stability dG unfold” value in series [1], in series [2] and in series [3] were 2.07 ± 0.2 kcal/mol, 1.91 ± 0.12 kcal/mol and 2.07 ± 0.12 kcal/mol, respectively.

On to “SAGGGTRTINFDSPEDAEDAIEDWPDWDKVTISVPSNGEPQSIPLKIKPPPPPKYKRDENGKPEPEPDSAGG [r13_183_TrROS]”, for which the “folding stability dG unfold” value was 2.65 ± 0.25 kcal/mol in series [1], 2.08 ± 0.14 kcal/mol in series [2] and 2.95 ± 0.19 kcal/mol in series [3].

As to “SAGGGTTITLSFADGTTKTLTLPGLTEVVEEPGRVVVRADVPERRVVVTFEPATGTITVEEFAPEEPVSAGG [r13_392_JUSTAS]”, the “folding stability dG unfold” value was found to be 1.86 ± 0.25 kcal/mol in series [1], 0.818 ± 0.1 kcal/mol in series [2] and 2.27 ± 0.057 kcal/mol in series [3].

With “SAGGGVPLTRSEPLGEIEFPEENIKLKISRYTSPLDGTEYIEITTDYGEGTSTSIYPPGEIEEILGGSAGGS [r16_603_JUSTAS]”, the “folding stability dG unfold” value in series [1] came to 0.909 ± 0.18 kcal/mol; in series [2] it was 0.666 ± 0.12 kcal/mol; in series [3], 1.39 ± 0.19 kcal/mol.

On to “SAGGGVTITASPDGTVTITIGGKPITVPVHPGATLEFRVEPTPDGRPAVTITWTSPDGTPYTFTFTGSAGGS [r16_231_TrMRF]”, for which the “folding stability dG unfold” value in series [1] amounted to 4.89 ± 0.053 kcal/mol; in series [2], 4.23 ± 0.14 kcal/mol; in series [3], 5.015 ± 0.036 kcal/mol.
